Assay results taken from the nanobody polyreactivity screen of Harvey et al. (2022).

Assay: yeast display, Sf9 membrane polyspecificity reagent, FACS + sequencing; frameworks hold sequencing errors
In short: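 A synthetic nanobody library was expressed on Saccharomyces cerevisiae BJ5465 by galactose induction for 36–48 hours. The library was stained for 1 hour at 4 °C with 10% biotinylated, detergent-solubilized Sf9 membrane reagent and enriched with streptavidin microbeads before FACS. Low and high (top ~1%) gates were set on anti-HA fluorescence for expression and streptavidin fluorescence for reagent binding, and each polyreactivity label reflects the gate of origin.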

Row | Sequence | polyreactivity (PSR sort gate)
1 | QVQLVESGGGLVQAGGSLRLSCAASGLIFYSNAMGWYRQAPGKERELVATISGSTGTTNYADSVKGRFTISRDNAKNTVYLQMNSLKPEDTAVYYCAAEWRRYEYADSWEYDYWGQGTQVTVSS | low polyreactivity
2 | QVQLVESGGGLVQAGGSLRLSCADSGRTFGRNVMGWYRQAPGKERELVASITRSGGSTYYADSVKGRFTISRDTAKNTVYLEMNSLKPEDTAVYYCAKCYYLWCSYWGPSQYDWGQGSQVTVSS | high polyreactivity
3 | QVQLVESGGGLVQAGGSLRLSCAASGRIFDGNAMGWYRQAPGKERELVATITRGGRTNYADSVKGRFTISRDNAKNTVYLQMNSLKPEDTAVYYCNARGSERVDTYSLYDYWGQGTQVTVSS | low polyreactivity
4 | QVQLVDSGGGLVQAGVSLRISCAASGSTFYANAMGWYRQAPGKERELVATITSSGTSTYYGDSVKGRFTISRDNAKNTFYLQMNSLKPEDIAVYYCAAEYSLLYWEFDYWGQGTQVTVSS | low polyreactivity
5 | QVQLVESGGGLVQAGGSLRLSCAASGLIFPRYTMGWYRQAPGKERELVAAIRGTGGSTYYADSVKGRFTISRDNAKNTVYLQMNSLKPEDTAVYYCATRGKSHGQQFNYWGQGTQVTVSS | high polyreactivity
6 | QVQLVESGGGLVQAGGSLRLSCAASGFTFGYNTMGWYRQAPGNERELGAAISWRGGSTFYADSVKGRFTISRDNAKNTVYLQMNSLKPEDTAVYYCNVLRLDQRYPSLRDDWGQGTQVTVSS | high polyreactivity
7 | QVQLVESGGGLDQARGSLRLSCAASGRTFVLNAMGWYRQAPGKERELVAAITLGGGSTYADSVKGRFTISRANAKNTVYLQMNSLKPEDTAVYYCAADFHYPYFEYWGQGTQVTVSS | low polyreactivity
8 | QVQLVESGGGLVQAGGSLRLSCAASGSTFPYNAMGWYRQAPGKDRELVAAITWRAGRTYYADSVKGRFTISRDNAKNTVYLQMNSLKPEDTAVYYCAKSYQRGVNHYEYWGQGTQVTVSS | high polyreactivity
9 | QVQLVESGGGLVQAGGSLRLSCAASGITFVRNAMGWYRQAPGKEREFVAAISWSGGSTYYADSVKGRFTISRDNAKNTVYLQMNSLKPEDTAVYYCAKRSRGVKYDYWGQGTQVTVSS | high polyreactivity
10 | QVQLVESGGGLVQAGGSLRLSCAASGSTFAGNAMGWYRQAPGKEREFVAAITISVGSTYYADSVKGRFTISRDNAKNTVYLQMNSLTPEDTAVYYCAADFAYYVSLPSRFVYAGYYYWGQGTQVTVTS | low polyreactivity
11 | QVQLVESGGGLVQAGGSLRLSCAASGLIFSYNAMGWYRQAPGKERELVAAISYSGGSTYYADSVKGRFTNSRDNAKNTVYLQMNSLKPEDTAVYYCAAVWRRQGSAYVGSYGYDYWGQGTQVTVSS | high polyreactivity
12 | QVQLVESGGGLVQAGGSLRLSCPASGFIFWYNVMGWSRQAPGKERELVAAISGRGGSTYYADSVKGRFTISRDNAKNTVYLQMNSLKPEDTAVYYCNTFSYRSGAYGYWGQGTQVTVSS | high polyreactivity
13 | QVQLVESGGGLVQAGGSLRLSCAASGSIFILYAMGWYRQAPGKERELVAAISSTGTTYYADSVKGRFTISRDNAKNTVYLQMNSLKPEDSAVYYCAADIYPDWIYLLYGYWGQGTQVTVSS | low polyreactivity
14 | QVQLVESGGGLVQAGGSLRLSCAASGITFTRNVMGWYRQAPGKERELVAAISGSGGSTYYADSVKGRFTISRDNAKNTFYLQMNSLKPEDTAVYYCAARSRGGRRYDYWGQGTQVTVSS | high polyreactivity
15 | QVQLVESGGGLVQAGGSLRLSCAASGFIFVRYAMGWSRPAPGKERELVDAISGSGGRTYYADSVKGRFTISRDNAKNTVYLQMNSLIPEDTAVYYCNVKSYTYGYLPYDYWGQGTQVTVSS | high polyreactivity
16 | QVQLVESGGGLVQAGGSLRLSCAASGSTFAYNTMGWYRKAPGKERELVAAITQLGGSTYADSVKGRFTISRDNAKNTVYLQINSLKPEENAVYYCAADGYTYKFDYWGQGTQVTVSS | low polyreactivity
17 | QVQLVESGGGLVQAGGSLRLSCAASGRIFGLYAMGWYRQAPGKERELVATITRRAGSTYYADSVKGRFTISRDNAKNTVYLQMNSLKPEDTAVYYCAARSWANYDYWGQGTQVTVSS | high polyreactivity
18 | QVQLVESGGGLVQAGGSLRLSCAASGSTFGGNAMGWYRQAPGKERELVAAISSSGGSTYYADSVKGRFTISRDNAKNTVYLQMNSLKPEDTAVYSCAALYHWTYDYWGQGTQVTVSS | low polyreactivity
19 | QVQLVESGGGLVQAGGSLRLSCAASGLIFRYYAMGWYRQAPGKERELVATIRGGGSTYYADSVKGRFTISRDNAKNTVYLQMNSLKPEDTAVYYCAADPYSYGARGARGDYWGQGTQVTVSS | low polyreactivity
20 | QVQLVESGGGLVQAGGSLRLSCAASGRTLFVYAMGWYRQAPGKEREFVAAIRWRGGSTYYADSVKGRFTISRDNAKNTVYLQMNSLKPEDTAVYYCAADTYWVKTDYLYGYWGQGTQVTVSS | high polyreactivity
21 | QVQLVESGGGLVQARGSLRLSCAASVITFRHNTMGWYRQAPGKERELVSTNYADSVKGRFTISRDNAKNTVYLQMNSLKQEDTAVYYCNADGTFEYDYWGQGTQVTVSS | low polyreactivity
22 | QVQIVESGGGLVHAGGSLRLSCAASGRNIPPYVIAWYRQAPGKEREMVAAMSWRGGNTYYADSVKGRFTISRDNAKNTVYLQMNSLKPEDTAVYYCAAKAYRRYSIPPYGYWGQGTQVTVSW | low polyreactivity

Row | Sequence | polyreactivity (PSR sort gate)
23 | QVQLVESGGGLVQAGGSLRLSCAASGRTFLRYAMGWYRQAPGKERELVAAISSRGGTTHYADSVKGRFTISRDNAKNTVYLLMNSLKPEDTAVYYCAAKSFLPYLKFGYWGQGTQVTVSS | high polyreactivity
24 | QVQLVESGEGLVQAGGSLRLSCAASGRTFDRNTMGWYTQAPGKERELVAAISSSGGSTYYADSVKGRFTISRDNAKNTVYLQMNSLKPEDTAVYYCAVRSRQYFRYGYDYWGQGTQVTVSS | high polyreactivity
25 | QVQLVESGGGLVQAGGSLRLICAASGSIFFPYDMGWYRQAPGKERELVASITRAGSTNYADSVKGRFTISRDNAKNTVYLQMNSLKPEDTAVYYCAARNYRQFEYGYWGQGTQVTVSS | low polyreactivity
26 | QDQLVESGGGLVQAGGSLSLSCAASGSTFQPYTMGWYRQAPGKERELVAAITGRGGSTYYADSVKGRFTISRDNAKNTVYLQMNSLKPEDTAVYYCAAGAYRRNKSDYYYWGQGTQVTVSS | low polyreactivity
27 | QVQLVESGGGLVQAGGSLRLSCAASGFTFWTYAMGWYRQAPGKERELVAAIDSGGSTYYADSVKGRFTISRDNAKNTVYLQMNSLKPEDTAVYYCAKDVLAPYSRHDYWGQGTQVTVSS | low polyreactivity
28 | QVQLVESGGGLVQAGGSLRLSCAASGSIFRPYAMGWYRQAPGKERELVAAISWRSGRTYYADSVKGRFTISRDNAKNTVYLQMNSLKPEDTAVYYCAADLASYAYRYDYWGQGTQVTVSS | high polyreactivity
29 | QVQLVESGGGLVQAGCSLRLTCAASGFIYLSYGMGWNRQAPGKERELVASITSDGGSTYYADSVKGRFTISRDNAKYTVYLQMNSLKPEDTAVYYCAADSVSPWYYGWYYRYRGYGYCGQGTQVTVSS | low polyreactivity
30 | QVQLVESGGGLVQAGGSLRLSCAASGRTFRTYTMGWYRQAPGKEREFGAAITSSGASTYYADSVKGRFTISRDNAKNTVYLPMNSLKPEETAVYYCAARYGRRLVWVPALLYDYWGQGTQVTVSS | high polyreactivity
31 | QVQLVESGGGLVQAGGSLRLSCAASGLTFDYYTMGWYRQAPGNERELVAAINWSGGRTYYADSVKGRFTISRDNAKNTVYLQMNSLKPEDTAVYYCAAETYRRHDYDYWGQGTQVTVSS | high polyreactivity
32 | QVQLVESAVGLVQAGGSLRLSSAASGFTFPLYAMGWYRQEHGKEREFVPVISRSGGSTYYADSVKGRFTISRDNAKNTVYLQMNSLKPEDTAVYYCAARLVPRSPERGNYDYWGQGTQVTVSS | high polyreactivity
33 | QVQLVESGGGLVQAGGSLRLSCAASGFTLWYNTMGWYRQAPGKERELVASITIGDSTSYADSVKGRFTISRDNAKNTVYLQMNSLKPEDTAVYYCNAEIALNSYDTYHRAADGYNYWGQGTQVTVSS | low polyreactivity
34 | QVQLVESGAGLVQAGGRLRLSCAASGFTFRAYDMGWSRQAPAKERELVAAINISGGSTYYADSVKGRFTISRDNAKNTVYLQMNSLKPVDTAVYYCAAVPWVGTLYPRVGYWGQGTQGTVSS | low polyreactivity
35 | QVQLVESGGGLVQAGGSLRLSCAASGSTCVNNDMGLYRQAPGKEGELVAGITTSGGSTYYADSVKGRFTISRDKAKNTVYLQMNSLKPEDTAVYYCAARAFSAWLEMDYWGQCTQVTVSS | low polyreactivity
36 | QVQLVESGGGLVQAGGSLRLSCAASGRTFRANTMGWYRQAPGKERELVAAITWSGASTYYADSVKGRFTISRDNAKNTVYLQMNSLKPEDTAVYYCNAGWDSGIVQSDETVYKYDYWGQGTQVTVSS | low polyreactivity
37 | QVQLVDSGGGLVQAGGSLRLSCAASGRIFRWNAMGWYRQAPGKERELVAVISSGGSTNYADSVKGRFTISRDNAKNTVYLQMNSLKPEDTAVYYCAKGLIRYSHLDYWGQGTQVTVSS | low polyreactivity
38 | QVQLVESGGGLVQAGGSLRLSCAASGFTFTLNTMGWYRQAPGKERELVAAISSGGRTYYADSVKGRFTISRDNAKNTVYLQMNSLKPEDTAVYYCAADYTWRFLRFGYWGQGTQVTVSS | high polyreactivity
39 | QVQLVESGGGLVQAGGSLRLSCDASGFIFPYYAMGWYRQAPGKERELVARITRGGRTYYADSVKGRFTISRDNAKNTVYLQMNSLKPEDTAVYYCATTGSSYFHSFEYDYWGQGTQVTVSS | low polyreactivity
40 | QVQLVESGGGLVQAGGSLRLSCAASGRTFGTYAMGWYRQAPGKERELVAAISRRGGTTYYADSVKGRFTISRDNAKNTVYLQMNSLKPEDTAVYYCNVYRVSFSVVPLGYWGQGTQVTVSS | high polyreactivity
41 | QVQLVESGGGLVQAGGSLRLSCAASGFTFQTYAMGWYRQEPGKERELVATIRTRGGSTSYADSVKGRFTISRDNAKNTVYLQMNSLKPEDTAVYYCNGRLSYRSAWYYGGDRYDYWGQGTQVTVSS | high polyreactivity
42 | QFQLVESGGGLVQAGGSLRLSCAASGTFGSYAMGWYRHAPGKERELVASISGTGGDTYYADSVKGRFTISRDNAKNTVYLQMNSLKPEDTAVYYCAARWSRYWYLGSWLYDYWGQGSQVTVSS | high polyreactivity
43 | QVQLVESGGGLVQAGGSLRLSCAASGFIFVDYDMVWYRQAPGKERELVAAISARGGSTNYADSVKGRFTISRDNAKNTVYLQMNSLKPEDTAVYYCAADTPVWSGYWYDYWGQGTQVTVSS | low polyreactivity
